This is an account of results in US20260028403A1 (Zymeworks, published 2026).

Assay [1] addresses T1, CD28 on primary human T cells (human, UniProt P10747 19-220). As to the kind of experiment: cell-based or functional assay.
The target in assay [2] is T1, CD28 on primary human T cells. As to the kind of experiment: cell-based or functional assay. The source holds these as a separate data set.
Assay [3] deals with T2, Recombinant human/cynomolgus/rhesus macaque CD28 mouse IgG2a Fc fusion protein (Acro Biosystems) (human/cynomolgus/rhesus macaque, UniProt P10747 19-152).
T2 construct: bought; also called huCD28
As to the kind of experiment: SPR, in-format anti-CD28 variants, huCD28. A general note: SPR reads the build-up and loss of mass on a sensor chip optically.

Assay [4] addresses T2, Recombinant human/cynomolgus/rhesus …. The assay is described as follows: SPR Biacore T200, CD28-mIgG2a Fc on CM5, construct injected, 1:1 model.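 Further: fc fusion captured by amine coupling, run at 25 °C in HEPES buffer pH 7.4, association 140-500 s then dissociation 600-1200 s, values averaged over three independent runs.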
Assay [5] concerns the target T3, Recombinant MSLN his tag protein (R&D systems) (UniProt Q13421 296-580, limits assumed).
T3 construct: his tag; also called mesothelin
The assay is described as follows: SPR Biacore T200, MSLN-his on CM5, construct flowed, 1:1 model.

Assay [6] concerns the target T4, Recombinant human CD3 epsilon/delta heterodimer, his tag protein (Acro Biosystems) (human, UniProt P07766 23-126; P04234 22-105).
T4 construct: bought
As to the kind of experiment: SPR Biacore T200, CD3 e/d-his on CM5, construct injected, 1:1 model.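 Further: measured at 25 °C in HEPES-buffered saline with EDTA and Tween 20 at pH 7.4, values are means of three independent runs.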

Positions count from the first letter of the chain named. Names may count otherwise.

B1: v37695 (trispecific antibody, human IgG1, kappa, L234A L235A)
heavy 1: not shown
heavy 2: QVQLVESGGGLVQPGGSLRLSCSVSGIDLSSNPMIWVRQAPGKGLQYIGIIDTDGSTYYADWAKGRFTISKDSTTVYLQINSPRAEDTAVYYCARRLHGSSNGYYDDLWGQGTLVTVSSGGGGSGGGGSGGGGSGGGGSDGQMTQSPSSVSASVGDRVTITCQASQSIYSYLSWYQQKPGQRPKLLIYKASTLASGVPSRFSGSGSGTDFTLTISSVQPEDFATYYCQQGYTVTNVDKNTFGGGTKVEIKAAEPKSSDKTHTCPPCPAPEAAGGPSVFLFPPKPKDTLMISRTPEVTCVVVSVSHEDPEVKFNWYVDGVEVHNAKTKPREEQYNSTYRVVSVLTVLHQDWLNGKEYKCKVSNKALPAPIEKTISKAKGQPREPQVYVLPPSRDELTKNQVSLLCLVKGFYPSDIAVEWESNGQPENNYLTWPPVLDSDGSFFLYSKLTVDKSRWQQGNVFSCSVMHEALHNHYTQKSLSLSPG
light: DIQMTQSPSSLSASVGDRVTITCRASESVEYYVTSLMQWYQQKPGKAPKLLIYAASAVDSGVPSRFSGSGSGTDFTLTISSLQPEDIATYYCQQSRKVPFTFGGGTKVEIKRTVAAPSVFIFPPSDEQLKSGTASVVCLLNNFYPREAKVQWKVDNALQSGNSQESVTEQDSKDSTYSLSSTLTLSKADYEKHKVYACEVTHQGLSSPVTKSFNRGEC
notes: also called v37638 format, CD28 VL N1066A
What is called Kd is the free concentration of one partner at which half of the binding sites on the other are occupied at equilibrium, for simple one-to-one binding. The term koff denotes the rate constant with which the complex falls apart. For orientation: kon means the rate constant with which the complex forms. On to B1, for which, in assay [1], the “IL-2 maximum cytokine, T cells alone” value stood at 28.9 pg/mL; the “IL-2 maximum cytokine, T cells with SNU 601 cells” value was determined as 3470 pg/mL; the “TNFa maximum cytokine, T cells alone” value was 13 pg/mL; the “TNFa maximum cytokine, T cells with SNU 601 cells” value is 404 pg/mL. In assay [2], the “IC50, T cell-dependent cytotoxicity on SNU 601” value turned out to be 0.04 pM and the “Maximum Killing (%), SNU 601” value was 89.1%. Further, in assay [3], the “Fold-change from WT” value was determined as 1.3 fold, the Kd was determined as 27.7 nM, the dissociation rate constant (koff) was found to be 0.00266 s⁻¹ and the kon came out at 95100 M⁻¹ s⁻¹.

B2: v34927 (bispecific antibody, human IgG1, kappa, L234A L235A)
heavy 1: not shown
heavy 2: EIVLTQSPATLSLSPGERVTMSCSASSSVSYMHWYQQKPGQAPRLWIYDTSKLASGVPARFSGSGSGTDYTLTISSVEPEDNAVYYCQQWSGHPLTFGQGTKVEIKGGGGSGGGGSGGGGSGGGGSQVQLVQSGAEVKKPGASVKISCKASGYSFTGYTMNWVRQAPGQGLEWIGLITPYSGASSYAQKFQGRATLTVDKSTSTAYMELSSLRSEDTAVYYCARGGYDGRGFDYWGQGTNVTVSSAAEPKSSDKTHTCPPCPAPEAAGGPSVFLFPPKPKDTLMISRTPEVTCVVVSVSHEDPEVKFNWYVDGVEVHNAKTKPREEQYNSTYRVVSVLTVLHQDWLNGKEYKCKVSNKALPAPIEKTISKAKGQPREPQVYVLPPSRDELTKNQVSLLCLVKGFYPSDIAVEWESNGQPENNYLTWPPVLDSDGSFFLYSKLTVDKSRWQQGNVFSCSVMHEALHNHYTQKSLSLSPG
light: B1 light with A57N
notes: MSLN VL-VH scFv); also called anti-(MSLNxCD28) bispecific control
For B2, in assay [4], the dissociation constant Kd came out at 50.7 nM, the dissociation rate constant (koff) turned out to be 0.00258 s⁻¹ and the on-rate (kon) worked out at 50900 M⁻¹ s⁻¹. For the same molecule, in assay [5], the Kd is 6.86 nM, the off-rate (koff) is 0.00187 s⁻¹ and the kon was found to be 270000 M⁻¹ s⁻¹.

B3: v34919 (bispecific antibody, human IgG1, lambda, L234A L235A)
heavy 1: not shown
heavy 2: B2 heavy 2
light: NFMLTQPHSVSESPGKTVTISCKRNTGNIGSNYVNWYQQHEGSSPTTIIYRNDKRPDGVSDRFSGSIDRSSKSASLTISNLKTEDEADYFCQSYSSGFIFGGGTKLTVLGQPKAAPSVTLFPPSSEELQANKATLVCLISDFYPGAVTVAWKADSSPVKAGVETTTPSKQSNNKYAASSYLSLTPEQWKSHRSYSCQVTHEGSTVEKTVAPTECS
notes: MSLN VL-VH scFv); also called anti-(MSLNxCD3) bispecific control
For B3, in assay [6], the Kd was 50.4 nM, the koff was found to be 0.0131 s⁻¹ and the on-rate (kon) was found to be 267000 M⁻¹ s⁻¹. Besides, in assay [5], the Kd stood at 4.16 nM, the koff stood at 0.00181 s⁻¹ and the kon amounted to 458000 M⁻¹ s⁻¹.
